Laboratory results as given in patent publication US20170022258A1, “PEPTIDES FOR USE IN THE TREATMENT OF IL-1 RELATED DISEASES AND CONDITIONS” (C4M PHARMACEUTICALS PTY LTD., priority 2011, published 2017).
Non-standard residues stand in square brackets, D forms with d. No end group written: not given here.

Tests used:
[1] = background statement; cited from earlier work
[2] = test system: IL-1 stimulation of IL-8 in human skin fibroblasts; test: Inhibition of IL-1 induced IL-8 in human fibroblasts; type: cell-based; settings: n=3; maximal activation with IL-1 only 2530±13 pg/ml
[3] = test system: IL-1α-induced IL-8 production by HT-29 cells; test: IL-1α induced IL-8 production by HT-29 colonic epithelial cells; type: cell-based, human; settings: IL-1ra 500 control
Description: (§1) Human colon epithelial cell lines HT-29 and Caco2 obtained from the European Collection of Animal Cell Cultures (ECACC) were used in cell cultures. Cells were routinely cultured at 37° C. in an atmosphere of 5% CO2 in 80 cm^2 tissue culture flasks in McCoy's and DMEM medium, respectively, supplemented with penicillin (10 u/ml), streptomycin (10 μg/ml), fungizone (0.5 μg/ml), and 10% (v/v) FCS (referred to as complete medium) until confluent.
(§2) Confluent monolayers were sub-cultured into 6-well plates for experimental protocols. Cells were grown in 6-well plates until confluent. Twenty-four hours prior to the experiment the confluent monolayers were washed and cultured in FCS-free McCoy's medium. Growth arrested cultures were then treated with fresh FCS-free medium and stimulated with vehicle controls or various doses of IL-1α added alone or in combination with other pro-inflammatory cytokines (TNF-α, IFN-γ) in the presence or absence of the peptide of sequence 4 or IL-1 ra, in a dose and time dependent manner.
(§3) Supernatants were collected, centrifuged to remove cellular debris and stored at −70° C. until assayed for extracellular inflammatory mediators. Total RNA for RT-PCR was extracted as described above. Cell counting and viability was routinely checked at the beginning and the end of the experiment by phase microscopy and by trypan blue exclusion using representative wells. Mycoplasma tests were performed during the experimental protocol. Production of soluble mediators was assessed by commercially available ELISA in supernatants, RT-PCR in total RNA extractants and nitric oxide, as described in Kolios, G, et al. (1995). Br J Pharmacol, 116, 2866-2872, the contents of which are incorporated herein by reference.
HT 29 and Caco2 colonic epithelial cell lines were stimulated with 10 ng/ml of IL-la in the presence of 100 or 500 ng/ml of the peptide of sequence 4.

[4] = test system: IL-1α-induced IL-8 production by Caco2 cells; test: IL-1α induced IL-8 production by Caco2 colonic adenocarcinoma cells; type: cell-based, human; settings: IL-1ra 100 ng/ml, IL-1α alone 476.93±78.9, n=3
Description: as §1, §2
(§4) Supernatants were collected, centrifuged to remove cellular debris and stored at −70° C. until assayed for extracellular inflammatory mediators. […] Production of soluble mediators was assessed by commercially available ELISA in supernatants, RT-PCR in total RNA extractants and nitric oxide, as described in Kolios, G, et al. (1995). […]

[5] = test system: IL-1α+IFN-γ induced IL-8 production by HT-29 cells; test: IL-1α+IFN-γ induced IL-8 production by HT-29 cells; type: cell-based, human; settings: IL-1ra control
Description: as §1, §2, §3
Stimulation of HT-29 cells with a combination of pro-inflammatory cytokines induces increased secretion of chemokines, including IL-8 (as described in Kolios, G, et al. (1999). Eur J Immunol, 29, 530-536 the contents of which are herein incorporated by reference). […]

[6] = test system: IL-1α+IFN-γ induced IL-17 production by HT-29 cells; test: IL-1α+IFN-γ induced IL-17 production by HT-29 cells; type: cell-based, human; settings: IL-1ra control
Description: as §1, §2, §4

[7] = target: IL-1 receptor (IL-1R) expressed on human monocytes (human) (UniProt P14778); test: cell-based or functional assay
[8] = target: IL-1 receptor (IL-1R) expressed on human monocytes (human) (UniProt P14778); test: radioligand competition, 40 pM 125I-IL-1α on confluent human monocytes
[9] = target: T1, IL-1 receptor (IL-1R) expressed on human monocytes (human), P14778; test: cell-based or functional assay
T1 chain: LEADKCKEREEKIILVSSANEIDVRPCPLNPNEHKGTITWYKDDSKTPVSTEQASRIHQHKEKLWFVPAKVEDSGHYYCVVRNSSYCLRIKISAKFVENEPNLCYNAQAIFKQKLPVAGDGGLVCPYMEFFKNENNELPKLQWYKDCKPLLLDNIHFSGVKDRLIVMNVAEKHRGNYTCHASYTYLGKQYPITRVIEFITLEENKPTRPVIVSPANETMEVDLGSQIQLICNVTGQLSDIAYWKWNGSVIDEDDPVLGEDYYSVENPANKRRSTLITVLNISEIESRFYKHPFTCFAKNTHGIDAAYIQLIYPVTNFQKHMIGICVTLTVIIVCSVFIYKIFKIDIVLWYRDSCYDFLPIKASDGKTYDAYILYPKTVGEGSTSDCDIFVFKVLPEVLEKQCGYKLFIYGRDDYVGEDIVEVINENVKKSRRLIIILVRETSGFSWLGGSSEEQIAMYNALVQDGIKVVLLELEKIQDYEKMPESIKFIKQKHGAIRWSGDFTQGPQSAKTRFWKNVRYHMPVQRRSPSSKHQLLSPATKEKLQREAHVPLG

[10] = target: T1, IL-1 receptor (IL-1R) expressed on …; test: radioligand competition, 40 pM 125I-IL-1α on confluent human monocytes

Molecule: recombinant IL-1Ra: recombinant full length IL-1Ra approved for methotrexate resistant rheumatoid arthritis (Amgen: Kineret-Anakinra)
- half-life [1]: approximately six

Molecule: IL-1ra: IL-1R antagonist, member of the IL-1 cytokine family; competitively inhibits the activities of IL-1 [reference compound]
- IL-8, nonspecific activation in the presence of 1000-fold excess IL-1Ra [2]: 30 ± 9 pg/mL
- IL-8 production in the absence of IL-1α [3]: did not result in production of IL-8
- IL-1α-induced IL-8 secretion [4]: 923.95±63.69 pg/ml per 106 cells
- IL-8 production in the absence of IL-1α [5]: did not result in production of IL-8
- IL-17 production without cytokine stimulation [6]: did not produce significant amounts of IL-17

Molecule: Ac-[dL][dP][dL][dA][dY][dP][dQ][dW][dY][dY][dA][dN][dS][dE][dE][dW][dT][dF] [peptide of SEQ ID NO: 16 (Ac-…, D-amino acids)]
- IC50, in vitro inhibition of IL-1 stimulation of IL-8 in human skin fibroblasts (rIL-1β 50 pg/ml, IL-8 ELISA) [7]: 120 nM
- IC50 [8]: 22 nM

Molecule: Ac-[dL][dP][dL][dA][dY][dP][dQ][dW][dY]G[dP][dT][dW][dE][dF][dS][dS][dV][dN][dA][dT] (not fully specified (residue 10); printed as Ac-LPLAYPQWYGPTWEFSSVNAT) [peptide of SEQ ID NO: 18 (Ac-…, D-amino acids)]
- IC50, in vitro inhibition of IL-1 stimulation of IL-8 in human skin fibroblasts (rIL-1β 50 pg/ml, IL-8 ELISA) [7]: 810 nM
- IC50 [8]: 190 nM

Molecule: Ac-[dL][dP][dL][dA][dY][dP][dQ][dW][dY]G[dP][dT][dW][dE][dF]
- IC50, in vitro inhibition of IL-1 stimulation of IL-8 in human skin fibroblasts (rIL-1β 50 pg/ml, IL-8 ELISA) [9]: 5.9 nM
- IC50 [10]: 6.9 nM
